Experimental data taken from the RNAGym collection of RNA variant scans (doi:10.1073/pnas.2313332121).

B1: TPR t1 (parent)
chain: GACCAAUCUGCCCUCAGAGCUCGAGAACAUCUUCGGAUGCAGAGGAGGCAGGCUUCGGUGGCGCGAUAGCGCCAACGUCCUCAACCUCCAAUGCAUCCCACCACAUGAUGAUGCCUGAAGAGCCUUGGUUUUUUG

Variants of: B1
Assay: polymerase ribozyme fitness, log enrichment relative to wild type (log ratio); higher = more active; in vitro selection for triplet polymerase activity
How it was run: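 Input and output libraries were sequenced on Illumina after a single in vitro selection round, run in triplicate on PCR-built, transcribed mutant libraries of each subunit of a heterodimeric triplet polymerase ribozyme. Selection annealed libraries to a biotinylated primer, the partner subunit and triplets, incubated them frozen at −7 °C, then gel-excised extended constructs for streptavidin-bead capture and RT-PCR. Genotypes with ≥10 input reads and ≥1 read per output were kept. Fitness is the logarithm, taken in base 2, of genotype enrichment divided by wild-type enrichment, using inverse-variance-weighted replicate averages.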

Variant | polymerase ribozyme fitness (log ratio)
A5C C12G C49A C56A A83C | -1.46
A5C C89A A111C | -3.6
C4U A27U C72U | -2.49
C4U C15A C82G | -3.56
A5C U7C A29G G71A C89U G93C | -4.81
A5G A46U C56U C73G G122A C123A | -3
A5C U78C G127C U129C | -2.19
C4U C53U U125A | -1.45
C4U A6G C13G A83G | -1.95
C3U C79A G113U | -5.54
A5C C40U U67C C104G C123G G128A | -6.57
C4G C15A A16U C53A C72U U78C C115U | -3.84
C4U C53G G57U G110A | -1.58
A5G C13A C53U U59G G69C | -4.36
C3U G71U A121G U125A | 1.49
C4G C11G G39A | -1.72
A5C A74C | -1.06
C4A C34A G71U | -4.3
C3U U21A A41G G48U C101G C124G | -1.96
C4U C8G G47C C123A | -0.0311
C4G A66G C115A | -2.94
C4G C80U C89G | -4.61
A5G C13U C98U G128U | -3.14
C4A A18G C40A C114A A119G | -3.79

Variant | polymerase ribozyme fitness (log ratio)
A5C C11G C79U G117C | -1.88
C4A C13U C15G A37C G113A A121C | -6.02
C4A U7A G110U | -2.4
A5C C56A C80A | -3.29
C4U G44U C76A G77U A91C G120A | -2.7
C4U U7A C11A | -0.665
A5C C22G C56G C123U | -4.43
C4U U7C A43U C70U C85A U92G G120C | -5.06
C3U U92G G117U A119U | -5.83
C4U G69A C89U C123G | -3.15
C4G G113U | -3.96
C4U G52A C62U C82G G120C | -0.476
C4G C8G C11A U14G C124U | -0.919
C4G C123G G128C | -0.896
C3U C79A G117A | -4
A5C C12A C73U | -0.891
A5C G63A U81A | -2.31
A5G A27U A111G | -3.24
A5G A27G G45C C97U G120A | -2.95
A5C C34A G42C C88U | -5.7
A5G A41G A50U C72U A75U G93A U112A G113C | -3.59
A5C C8G A26U | -1.68
C4A A121U U129G | 0.901
A5G C12A U38A G60A A121C G135U | 0.199

Variant | polymerase ribozyme fitness (log ratio)
C4G G61A U87G | -2.28
C4G U32C G45U | -3.28
C4U C49U C73G A121C | 0.746
C4U C72A C85U C102U A121G U133A | 0.405
C4A A5C C13U G128C | -1.73
A5C A26U G36A C88U | -6.38
C4U U81A | -1.77
C4U C11A G61U C98U G113A U126G | -5.59
C4G G44C C62U | -2.44
C4U C49U C56G C114A G127A | -3.57
C4U C56A C101A G117C | -5.92
C4U C11U A37U G71C | -1.4
C4A G52C A74C | -2.47
A5C C11G G36U G44A C56A U112A | -1.22
C4U G69U G93U | -1.17
C4G C13U U21C C62G G120U | -2.48
A5C C56G | -1.73
C4U C8G C13A U21G G77U C82A A84U A121C | -0.469
A5C A26U C62U | -4.3
A5G C13A C20U U129C | -4.45
C4G C12A U87G C115U | -3.74
C3U G10U A29G G44U G57C C82U A105U G120C | -6.47
C4U C56A U130C | -0.451
A5C A18C | -2.78

Variant | polymerase ribozyme fitness (log ratio)
A5C A43U U78C G93C | -4.85
C4U A27G | -2.96
C4G A46U C53A C72A C86A | -2.23
A5G C12A G45A U78C C88A | -0.938
C4A A27U | -3.57
C3U C70A C86U A118U | -1.74
C3U G51U C80U | -2.32
C4A C80A C101U A121G | -1.22
C4U A43U | -2.23
A5G C13A G48C C73A U112A G120C | -0.914
A5G A18U C28U | -4.63
A5G A18G G44C G48C U55C U59G G69U G117U | -5.43
A5C C12G C114G | -5.39
C3U G120C | 0.705
A5C C70G | -2.95
C4U C85U | -1.63
C4U A41G | -0.698
A5G A29U G48C U112G | -4.65
C4G G61U | -1
A5C U87G C101U | -0.776
C4U G63U | -1.66
C4U C70A C85G C86U | -3.72
C4U A6G G39A C72A C85A A90G C114U | -3.29
C4A C124A | -0.256

Variant | polymerase ribozyme fitness (log ratio)
C4G U9A U112G G117U | -2.18
C4U C62U C124G | 1.31
C4A G48U G120U | -3.84
C3U G47A G60A C85G C123U | -2.64
C4G C40U A66C C86G C97A C115G | -6.24
A5G A37G C53U A105G U112G U125G G135U | -5.89
C4U A16G C49U G69U G113U | -2.65
C4U G48U G52U A90U C124G | -1.92
C3U G77A A121U | 2.03
A5C C40A C64U C89U C102U U106A | -7.21
C4U A46U A95C | -2.04
A5C A26G C88U U116C U129A | -6.24
C4G G36A A43C G45U C124G | -4.47
C3U C70A | -1.81
C4U C70G | -2.23
A5C G63C C94A G113C G122U | -4.6
C4U C72A | -0.193
A5C C89G C114G U126C U131A | -5.03
C4U U7G C11G C13A C56U U87A U112A | 1.5
C4U A68U A100U G117U | -5.92
C4U G36U C73U G127A | -2.05
A5G C15U C49U C62A C123A | -2.06
C4G C15U U96A G127C | -2.26
A5C C12G C49A A83C | -0.122

Variant | polymerase ribozyme fitness (log ratio)
C4U U87A | -1.16
C4A A46U | -2.61
C4A A46C | -3.07
A5G C12U G35A G71A U78A C85G C124A | -5.49
C4G C8A C20G A111C C123G | -4.96
C3U U7A A37C C98U | -2.2
C4G U32A G71U A121C U129A | -4.53
C4A G93A G120C U126G | -1.92
C3U G48U U54G G120C | 0.141
C3U U96A | -1.12
A5G C20U U38G G110U | -4.64
A5C C8G U33G C97U | -5.64
C3U U14G A26U G60U C123A | -4.1
A5C G71A U132A | -1.18
A5G A18G G117U U125A | -2.93
A5C C56G C80U | -1.77
C4U G42U U59A | -2.49
C3U G69U C94G C114A U125A | -3.19
A5G A111G G122U | -2.04
C4A C56G C102U | -4
C3U G113C | -2.47
C4G C22G G42A C53G | -4.26
C4G C13A | -3.23
C4G C13G | -3.83

Variant | polymerase ribozyme fitness (log ratio)
C4U A16U G42U U59G A84U | -4.24
C4G A50U G61U | -2.2
C4G U87G | -1.54
C4U C62G U112A | -1.6
A5C C11U C40U G48U G60U U87A A111C | -4.98
C3U C79U | -0.681
C4G A37G C53U A111C | -1.68
C3U G69A | -2.67
A5C C123G | 1.35
C4U C11A A50C C85U U112C | -1.65
A5C A37C C70U G110U | -4.1
A5G C8G | -0.847
C4U C64A A68C C79A G120U | -6.51
A5G A43C G44C G52C C73U U109A C114U C115A | -6.36
C4G A16C C82U G120C C124A | -3.01
C4A C8G G36U G45U G69C U78A C114U | -5.25
C4A C13U C40A G52A C104U | -2.23
C4G G45A | -2.31
A5G C11A C70G U81C | -4.45
C4U A90G | -0.325
C4U C49U C98U | -2.14
C3U U112C | 1.51
C3U U9A A27G G42U A100U U133A | -3.45
